Key:
[1] = molecular target: cycle inhibiting factor (Cif) from enteropathogenic Escherichia coli (EPEC) (enteropathogenic Escherichia coli (EPEC)); assay: SEC
[2] = molecular target: the molecule itself; assay: SEC

cycle inhibiting factor (Cif) from enteropathogenic Escherichia coli (EPEC) (natural protein), sequence (P0DUW5 whole entry): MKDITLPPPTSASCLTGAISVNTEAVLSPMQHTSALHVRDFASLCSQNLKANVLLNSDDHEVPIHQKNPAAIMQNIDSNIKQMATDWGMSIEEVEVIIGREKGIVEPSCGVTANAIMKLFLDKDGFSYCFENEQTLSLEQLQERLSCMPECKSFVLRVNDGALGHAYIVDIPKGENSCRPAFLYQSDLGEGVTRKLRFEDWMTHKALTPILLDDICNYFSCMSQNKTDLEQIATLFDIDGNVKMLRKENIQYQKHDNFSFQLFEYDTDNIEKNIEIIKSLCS

Molecule | stoichiometry N [1] | stoichiometry N [2]
cycle inhibiting factor (Cif) from enteropathogenic Escherichia coli (EPEC) (natural protein) | 2 | 
Cif from Photorhabdus luminescens (natural protein, also called CifPl; source: E. coli BL21(DE3) or B834(DE3), pET28a, purified (Ni2+-IMAC, Superdex 75)) SKFKKNSINTIKLIDDIIALHNDPKGNKLLWNDNWQDKIINRDLANIFEKIDESVSELGGLEMYQEMVGVNPYDPTEPVCGLSAQNIFKLMTEGEHAVDPVEMAQTGKIDGNEFAESVDQLSSAKNYVALVNDRRLGHMFLIDIPSNDQETVGYIYQSDLGQGALPPLKIADWLNSRGKDAVSLNKLKKLLSREFNLLSDDEKRALISETLDIHKDVSNVELDRIKRDRGVDIYLTEYDVNNFYENIETLKSKLSNYDKKLSKPK |  | 2
Cif from Photorhabdus asymbiotica (natural protein, also called CifPa; P. asymbiotica Cif; source: E. coli BL21(DE3) or B834(DE3), pET28a, purified (Ni2+-IMAC, Superdex 75)) MMREYSKEDDCVKEKTNLAESENVEADNYLEMDCLNYLAKLNGMPERKDHSLNSTKLIDDIIKLHNDRKGNKLLWNDNWQDKIIDRDLESIFKKIDEMVSEFGGIEIYKDIVGENPYDPTEPVCGYSAQNIFKLMTEGEHAVDPVKMAQTGKINGNEFAEKLEQLNSSNNYVALINDHRLGHMFLVDIPSTNREKVGYIYQSDLGDGALPALKIADWLKSRGKESINVNKLKKFLSNEFTMLSESEQKELIAEIFDINKDIANVKLGKIKKDKAVDVYLREYDLNDFISNIEKLKTKLV |  | 2

Source: paper PMC2679143 (PLoS ONE, 2009)
